One substance from publication doi:10.1101/2024.05.10.593530 can be followed below.

This assay addresses Vibrio cholerae DdmD (Vibrio cholerae). Briefly: SEC-MALS.

As a reminder, the stoichiometry N is the number of molecules, sites or subunits per partner or assembly.

As for Vibrio cholerae DdmD (enzyme), the stoichiometry N is 2.
